In paper PMC3098278 one finds Kd data, which are given here for two substances.

What all share (experiment): filter binding
In series [1] the test system is 80S ribosome, L11 114-116R (Saccharomyces cerevisiae? (yeast)). The note with it: aminoacylated (N-acetyl-Phe); Nitrocellulose filter binding, 30 C, 35 min (A-site) or 40 min (P-site), poly(U)-primed ribosomes; buffer, salt and pH not given; errors are SD.
The test system of series [2] is 80S ribosome, L11 H109E (Saccharomyces cerevisiae? (yeast)). The note with it: aminoacylated (N-acetyl-Phe); Nitrocellulose filter binding, 30 C, 35 min (A-site) or 40 min (P-site), poly(U)-primed ribosomes; buffer, salt and pH not given; errors are SD.
Series [3] relates to 80S ribosome, L11 87-90R (Saccharomyces cerevisiae? (yeast)). The note with it: aminoacylated (N-acetyl-Phe); Nitrocellulose filter binding, 30 C, 35 min (A-site) or 40 min (P-site), poly(U)-primed ribosomes; buffer, salt and pH not given; errors are SD.
For series [4], the system named is 80S ribosome, wild-type L11 (Saccharomyces cerevisiae? (yeast)). The note with it: aminoacylated (N-acetyl-Phe); Nitrocellulose filter binding, 30 C, 35 min (A-site) or 40 min (P-site), poly(U)-primed ribosomes; buffer, salt and pH not given; errors are SD.
Series [5] relates to 80S ribosome, L11 H109F (Saccharomyces cerevisiae? (yeast)). The note with it: aminoacylated (N-acetyl-Phe); Nitrocellulose filter binding, 30 C, 35 min (A-site) or 40 min (P-site), poly(U)-primed ribosomes; buffer, salt and pH not given; errors are SD.
Series [6] has as its system 80S ribosome, L11 H109E ((yeast)). The conditions noted are these: poly(U), tRNAPhe in P-site, soluble factors; aminoacylated (Phe); Nitrocellulose filter binding, 30 C, 35 min (A-site) or 40 min (P-site), poly(U)-primed ribosomes; buffer, salt and pH not given; errors are SD.
For series [7], the system named is 80S ribosome, wild-type L11 ((yeast)). The conditions noted are these: poly(U), tRNAPhe in P-site, soluble factors; aminoacylated (Phe); Nitrocellulose filter binding, 30 C, 35 min (A-site) or 40 min (P-site), poly(U)-primed ribosomes; buffer, salt and pH not given; errors are SD.

pKd: −log10 of the molar value.

As for Ac-Phe-tRNAPhe (P-site), the pKd was 7.39 in series [1]; 7.37 in series [2]; 6.91 in series [3]; 7.14 in series [4]; 7.00 in series [5].

As for Phe-tRNAPhe (A-site), the pKd in series [6] was 6.75; in series [7] it was 7.01.

Usually pKd stands for −log10 of the Kd, conventionally taken in molar units.
